Measured values published in patent US20250352662A1 (MERSANA THERAPEUTICS, published 2025).
Values joined by “and” are separate entries in the source; they are usually repeats but may differ in a detail not shown here. Equal entries are not always repeated.

Molecular target: T1, human NaPi2b on OVCAR3 human ovarian cancer cells (human, UniProt O95436 1-690)
T1 construct: also called SLC34A2; sodium-dependent phosphate transport protein 2B
T1 sequence: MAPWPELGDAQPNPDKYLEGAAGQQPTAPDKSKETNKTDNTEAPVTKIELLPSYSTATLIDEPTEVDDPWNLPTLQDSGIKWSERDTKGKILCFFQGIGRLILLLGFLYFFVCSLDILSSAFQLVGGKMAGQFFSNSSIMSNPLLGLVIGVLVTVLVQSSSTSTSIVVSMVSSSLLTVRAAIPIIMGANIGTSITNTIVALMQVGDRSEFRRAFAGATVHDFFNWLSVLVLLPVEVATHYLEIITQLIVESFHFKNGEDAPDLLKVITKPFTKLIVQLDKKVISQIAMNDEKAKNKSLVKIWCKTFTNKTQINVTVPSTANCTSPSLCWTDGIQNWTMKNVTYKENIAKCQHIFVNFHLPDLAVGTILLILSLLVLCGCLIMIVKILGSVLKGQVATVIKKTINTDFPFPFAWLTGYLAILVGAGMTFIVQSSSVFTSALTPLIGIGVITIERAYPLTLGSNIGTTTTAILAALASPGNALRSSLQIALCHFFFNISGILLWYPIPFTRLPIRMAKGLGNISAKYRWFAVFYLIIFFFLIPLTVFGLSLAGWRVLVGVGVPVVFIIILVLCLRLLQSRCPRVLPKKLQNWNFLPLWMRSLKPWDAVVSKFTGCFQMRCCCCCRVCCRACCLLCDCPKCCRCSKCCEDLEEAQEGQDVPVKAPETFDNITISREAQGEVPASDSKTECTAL
Experiment: flow cytometry on OVCAR3 cells, 1 h on ice, goat anti-human IgG-Alexa-647 detection, MFI; mean EC50
Procedure: OVCAR3 cells were grown to ˜80-95% confluency in RPMI 1640 medium supplemented with FBS (20%) and penicillin/streptomycin (1%). Cells were harvested and added to wells of a 96-well U bottom plate (50,000/well). The cells were pelleted (300×g, 5 minutes) and resuspended in solutions of test articles as indicated in Table 18 at concentrations ranging between 0.01 nM and 300 nM and incubated on ice for 1 hour.

B1: XMT-1535 Conjugate 8b-3, DAR 6.4 (antibody, human IgG1, kappa)
heavy: not shown
light: DIQMTQSPSSLSASVGDRVTITCSASQDIGNFLNWYQQKPGKTVKVLIYYTSSLYSGVPSRFSGSGSGTDYTLTISSLQPEDFATYYCQQYSKLPLTFGQGTKLELKRRTVAAPSVFIFPPSDEQLKSGTASVVCLLNNFYPREAKVQWKVDNALQSGNSQESVTEQDSKDSTYSLSSTLTLSKADYEKHKVYACEVTHQGLSSPVTKSFNRGEC
modifications: STING agonist linker-drug on cysteine thiols of the reduced antibody, positions not given; STING agonist linker-drug (Compound 7) joined through maleimide to cysteine thiols of the TCEP-reduced antibody, positions not given; DAR 6.4 per antibody
EC50: 8.13 nM

B2: XMT-1535 (antibody, human IgG1, kappa)
heavy: not shown
light: B1 light
notes: Unconjugated antibody, IgG1; also called anti-NaPi2b antibody; NaPi2b mAb
EC50: 4.29 nM and 3.74 nM

B3: XMT-1535 mIgG2a (antibody, V domains shown)
VH: QVQLVQSGAEVVKPGASVKMSCKASGYTFTGYNIHWVKQAPGQGLEWIGAIYPGNGDTSYKQKFRGRATLTADTSTSTVYMELSSLRSEDSAVYYCARGETARATFAYWGQGTLVTVSSG
VL: DIQMTQSPSSLSASVGDRVTITCSASQDIGNFLNWYQQKPGKTVKVLIYYTSSLYSGVPSRFSGSGSGTDYTLTISSLQPEDFATYYCQQYSKLPLTFGQGTKLELKR
notes: Unconjugated; variable domains are those of XMT-1535 by name only; also called XMT-1535 hIgG1-mIgG2a
EC50: 4.13 nM

B4: XMT-1535 mIgG2a Conjugate 32d, DAR 8.8 (antibody, V domains shown)
VH: B3 VH
VL: B3 VL
notes: elsewhere called chimeric hIgG1-mIgG2a; the variable domains are those of XMT-1535 by name only
EC50: 2.99 nM
